In the supplement of paper PMC9876800:

Test system: peptide library, one residue held at a place counted from the S/T acceptor
Assay: relative phosphorylation of the sub-library (ratio to the mean residue at this position); human; higher = residue favoured
Method in brief: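 Purified recombinant kinases (human or orthologue constructs) were incubated in 384-well plates with biotinylated degenerate peptide sub-libraries, each fixing one residue at one position around a central Ser/Thr. Peptides were at 50 μM, with 50 μM ATP spiked with γ-32P-ATP, for 90 min under kinase-specific conditions. Spots on streptavidin membranes were phosphorimaged and quantified by densitometry. Relative sub-library phosphorylation is a ratio to the mean residue at that position.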

NEK11, construct: Full length, sequence (Q8NG66 whole entry, looked up): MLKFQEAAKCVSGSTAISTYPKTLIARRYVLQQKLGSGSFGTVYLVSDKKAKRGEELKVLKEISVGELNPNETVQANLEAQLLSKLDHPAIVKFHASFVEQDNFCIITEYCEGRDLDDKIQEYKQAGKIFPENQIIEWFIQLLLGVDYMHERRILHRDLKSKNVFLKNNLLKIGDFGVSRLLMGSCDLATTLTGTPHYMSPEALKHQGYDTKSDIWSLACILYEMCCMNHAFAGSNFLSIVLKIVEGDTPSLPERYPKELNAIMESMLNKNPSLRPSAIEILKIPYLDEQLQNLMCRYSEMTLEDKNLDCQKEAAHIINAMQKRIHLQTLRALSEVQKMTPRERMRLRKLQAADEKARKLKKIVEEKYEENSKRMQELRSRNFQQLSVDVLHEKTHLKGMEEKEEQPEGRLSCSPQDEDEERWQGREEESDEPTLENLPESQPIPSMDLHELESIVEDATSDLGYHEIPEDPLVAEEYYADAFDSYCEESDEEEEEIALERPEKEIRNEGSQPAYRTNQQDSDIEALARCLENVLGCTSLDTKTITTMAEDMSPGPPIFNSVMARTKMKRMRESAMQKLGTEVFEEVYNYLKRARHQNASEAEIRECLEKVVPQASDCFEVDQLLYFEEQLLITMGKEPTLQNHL

NEK11, construct: Full length (from UniProt Q8NG66)
relative phosphorylation (A fixed, at +1): 0.432 | relative phosphorylation (A fixed, at +2): 0.613 | relative phosphorylation (A fixed, at +3): 0.845 | relative phosphorylation (A fixed, at +4): 0.834 | relative phosphorylation (A fixed, at -1): 0.977 | relative phosphorylation (A fixed, at -2): 1.38 | relative phosphorylation (A fixed, at -3): 1.06 | relative phosphorylation (A fixed, at -4): 0.887 | relative phosphorylation (A fixed, at -5): 1.02 | relative phosphorylation (D fixed, at +1): 0.25 | relative phosphorylation (D fixed, at +2): 0.395 | relative phosphorylation (D fixed, at +3): 0.499 | relative phosphorylation (D fixed, at +4): 0.597 | relative phosphorylation (D fixed, at -1): 0.64 | relative phosphorylation (D fixed, at -2): 0.742 | relative phosphorylation (D fixed, at -3): 0.568 | relative phosphorylation (D fixed, at -4): 0.73 | relative phosphorylation (D fixed, at -5): 0.677 | relative phosphorylation (E fixed, at +1): 0.234 | relative phosphorylation (E fixed, at +2): 0.349 | relative phosphorylation (E fixed, at +3): 0.53 | relative phosphorylation (E fixed, at +4): 0.606 | relative phosphorylation (E fixed, at -1): 0.59 | relative phosphorylation (E fixed, at -2): 0.579 | relative phosphorylation (E fixed, at -3): 0.643 | relative phosphorylation (E fixed, at -4): 0.659 | relative phosphorylation (E fixed, at -5): 0.709 | relative phosphorylation (F fixed, at +1): 2.35 | relative phosphorylation (F fixed, at +2): 0.978 | relative phosphorylation (F fixed, at +3): 1.48 | relative phosphorylation (F fixed, at +4): 0.997 | relative phosphorylation (F fixed, at -1): 0.918 | relative phosphorylation (F fixed, at -2): 1.49 | relative phosphorylation (F fixed, at -3): 1.22 | relative phosphorylation (F fixed, at -4): 1.33 | relative phosphorylation (F fixed, at -5): 1.18 | relative phosphorylation (G fixed, at +1): 0.494 | relative phosphorylation (G fixed, at +2): 0.664 | relative phosphorylation (G fixed, at +3): 0.797 | relative phosphorylation (G fixed, at +4): 0.876 | relative phosphorylation (G fixed, at -1): 1.57 | relative phosphorylation (G fixed, at -2): 1.28 | relative phosphorylation (G fixed, at -3): 1.01 | relative phosphorylation (G fixed, at -4): 1.2 | relative phosphorylation (G fixed, at -5): 1.36 | relative phosphorylation (H fixed, at +1): 0.625 | relative phosphorylation (H fixed, at +2): 1.42 | relative phosphorylation (H fixed, at +3): 0.962 | relative phosphorylation (H fixed, at +4): 1.28 | relative phosphorylation (H fixed, at -1): 1.1 | relative phosphorylation (H fixed, at -2): 0.909 | relative phosphorylation (H fixed, at -3): 0.976 | relative phosphorylation (H fixed, at -4): 0.929 | relative phosphorylation (H fixed, at -5): 1.11 | relative phosphorylation (I fixed, at +1): 2 | relative phosphorylation (I fixed, at +2): 0.549 | relative phosphorylation (I fixed, at +3): 0.797 | relative phosphorylation (I fixed, at +4): 0.497 | relative phosphorylation (I fixed, at -1): 0.491 | relative phosphorylation (I fixed, at -2): 0.542 | relative phosphorylation (I fixed, at -3): 0.671 | relative phosphorylation (I fixed, at -4): 0.724 | relative phosphorylation (I fixed, at -5): 0.866 | relative phosphorylation (K fixed, at +1): 0.563 | relative phosphorylation (K fixed, at +2): 1.85 | relative phosphorylation (K fixed, at +3): 1.3 | relative phosphorylation (K fixed, at +4): 1.96 | relative phosphorylation (K fixed, at -1): 1.67 | relative phosphorylation (K fixed, at -2): 0.867 | relative phosphorylation (K fixed, at -3): 1.12 | relative phosphorylation (K fixed, at -4): 1.06 | relative phosphorylation (K fixed, at -5): 0.901 | relative phosphorylation (L fixed, at +1): 1.86 | relative phosphorylation (L fixed, at +2): 0.787 | relative phosphorylation (L fixed, at +3): 1.25 | relative phosphorylation (L fixed, at +4): 0.805 | relative phosphorylation (L fixed, at -1): 0.914 | relative phosphorylation (L fixed, at -2): 0.975 | relative phosphorylation (L fixed, at -3): 1.12 | relative phosphorylation (L fixed, at -4): 0.945 | relative phosphorylation (L fixed, at -5): 0.763 | relative phosphorylation (M fixed, at +1): 2.27 | relative phosphorylation (M fixed, at +2): 1.06 | relative phosphorylation (M fixed, at +3): 1.2 | relative phosphorylation (M fixed, at +4): 0.824 | relative phosphorylation (M fixed, at -1): 1.42 | relative phosphorylation (M fixed, at -2): 1.06 | relative phosphorylation (M fixed, at -3): 1.4 | relative phosphorylation (M fixed, at -4): 1.07 | relative phosphorylation (M fixed, at -5): 1.13 | relative phosphorylation (N fixed, at +1): 0.573 | relative phosphorylation (N fixed, at +2): 1.06 | relative phosphorylation (N fixed, at +3): 1.05 | relative phosphorylation (N fixed, at +4): 1.11 | relative phosphorylation (N fixed, at -1): 1.23 | relative phosphorylation (N fixed, at -2): 1.42 | relative phosphorylation (N fixed, at -3): 1.18 | relative phosphorylation (N fixed, at -4): 1.08 | relative phosphorylation (N fixed, at -5): 1.03 | relative phosphorylation (P fixed, at +1): 0.479 | relative phosphorylation (P fixed, at +2): 0.795 | relative phosphorylation (P fixed, at +3): 0.931 | relative phosphorylation (P fixed, at +4): 1 | relative phosphorylation (P fixed, at -1): 0.558 | relative phosphorylation (P fixed, at -2): 1.05 | relative phosphorylation (P fixed, at -3): 0.971 | relative phosphorylation (P fixed, at -4): 1.08 | relative phosphorylation (P fixed, at -5): 0.927 | relative phosphorylation (Q fixed, at +1): 0.605 | relative phosphorylation (Q fixed, at +2): 0.78 | relative phosphorylation (Q fixed, at +3): 0.885 | relative phosphorylation (Q fixed, at +4): 1.27 | relative phosphorylation (Q fixed, at -1): 0.942 | relative phosphorylation (Q fixed, at -2): 0.944 | relative phosphorylation (Q fixed, at -3): 0.983 | relative phosphorylation (Q fixed, at -4): 1.06 | relative phosphorylation (Q fixed, at -5): 0.893 | relative phosphorylation (R fixed, at +1): 0.494 | relative phosphorylation (R fixed, at +2): 1.93 | relative phosphorylation (R fixed, at +3): 0.864 | relative phosphorylation (R fixed, at +4): 1.02 | relative phosphorylation (R fixed, at -1): 1.53 | relative phosphorylation (R fixed, at -2): 0.991 | relative phosphorylation (R fixed, at -3): 1.2 | relative phosphorylation (R fixed, at -4): 1.12 | relative phosphorylation (R fixed, at -5): 1.23 | relative phosphorylation (V fixed, at +1): 0.926 | relative phosphorylation (V fixed, at +2): 0.566 | relative phosphorylation (V fixed, at +3): 0.965 | relative phosphorylation (V fixed, at +4): 0.695 | relative phosphorylation (V fixed, at -1): 0.605 | relative phosphorylation (V fixed, at -2): 0.601 | relative phosphorylation (V fixed, at -3): 0.696 | relative phosphorylation (V fixed, at -4): 0.778 | relative phosphorylation (V fixed, at -5): 0.863 | relative phosphorylation (W fixed, at +1): 1.23 | relative phosphorylation (W fixed, at +2): 1.02 | relative phosphorylation (W fixed, at +3): 1.43 | relative phosphorylation (W fixed, at +4): 1.42 | relative phosphorylation (W fixed, at -1): 0.764 | relative phosphorylation (W fixed, at -2): 1.1 | relative phosphorylation (W fixed, at -3): 0.979 | relative phosphorylation (W fixed, at -4): 1.31 | relative phosphorylation (W fixed, at -5): 1.21 | relative phosphorylation (Y fixed, at +1): 1.62 | relative phosphorylation (Y fixed, at +2): 2.17 | relative phosphorylation (Y fixed, at +3): 1.21 | relative phosphorylation (Y fixed, at +4): 1.21 | relative phosphorylation (Y fixed, at -1): 1.08 | relative phosphorylation (Y fixed, at -2): 1.06 | relative phosphorylation (Y fixed, at -3): 1.21 | relative phosphorylation (Y fixed, at -4): 1.03 | relative phosphorylation (Y fixed, at -5): 1.13 | relative phosphorylation (pThr fixed, at +1): 0.998 | relative phosphorylation (pThr fixed, at +2): 1.15 | relative phosphorylation (pThr fixed, at +3): 1.06 | relative phosphorylation (pThr fixed, at +4): 0.672 | relative phosphorylation (pThr fixed, at -1): 0.94 | relative phosphorylation (pThr fixed, at -2): 1.38 | relative phosphorylation (pThr fixed, at -3): 1.37 | relative phosphorylation (pThr fixed, at -4): 1.47 | relative phosphorylation (pThr fixed, at -5): 1.17 | relative phosphorylation (pTyr fixed, at +1): 0.509 | relative phosphorylation (pTyr fixed, at +2): 0.51 | relative phosphorylation (pTyr fixed, at +3): 0.848 | relative phosphorylation (pTyr fixed, at +4): 0.63 | relative phosphorylation (pTyr fixed, at -1): 1.11 | relative phosphorylation (pTyr fixed, at -2): 0.973 | relative phosphorylation (pTyr fixed, at -3): 1.42 | relative phosphorylation (pTyr fixed, at -4): 0.98 | relative phosphorylation (pTyr fixed, at -5): 1.27
